Reference: the supplement of paper PMC11780869

System: Bacillus subtilis
Assay: cleaved RNA product abundance (RNA/gDNA barcode ratio) relative to median wild-type variant (ratio to wild type); higher = more accumulation of the downstream cleavage product
Conditions: experiment (reporter, strain, medium): exp 8a: truncated aprE reporter, strain BJT201 with 2% xylose (RNase J1 expressed); cleavage site: glnRA (positions -5 to +31 mutated)
Summary of the method: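 Oligos with a 9% error rate were used to build barcoded, mutagenized RNase Y cleavage-site windows within truncated aprE or tetM reporter mRNAs, which were integrated into the B. subtilis chromosome. Cultures were grown in LB at 37°C between OD600 0.0003 and 0.3. Cleaved RNA was gel-selected, reverse transcribed and barcode-sequenced, as were genomic DNA barcodes, and UMIs were collapsed. Cleaved product abundance is the scaled RNA:gDNA barcode ratio, with the median construct carrying the unmutated site as reference.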

Sequence | cleaved RNA product abundance
CGACATGTCCCGCTTCTTTCATTAATCCGTTAGCAACTGTTTTGCTATATATATATACCTTTTAAGAGGAGGAAT | 1.12
CGACATGTCCCGCTTCTTTCATTAATCCGTTAGCAACTGTTTTGCTATATATATTTACCCTTTAAGAGGAGGAAT | 0.959
CGACATGTCCCGCTTCTTTCATTAATCCGTTAGCAACTGTTTTGCTATATATATTTACCTTTTAAGAGGAGGAAT | 1.03
CGACATGTCCCGCTTCTTTCATTAATCCGTTAGCAACTGTTTTGCTATATATATTTACTTTTTAAGAGGAGGAAT | 1.89
CGACATGTCCCGCTTCTTTCATTAATCCGTTAGCAACTGTTTTGCTATATATATTTATCTTTTAAGAGGAGGAAT | 1.3
CGACATGTCCCGCTTCTTTCATTAATCCGTTAGCAACTGTTTTGCTATATCCATTGACCTTTTAAGAGGAGGAAT | 0.461
CGACATGTCCCGCTTCTTTCATTAATCCGTTAGCAACTGTTTTGCTATATCCATTTACCTTTTAAGAGGAGGAAT | 0.167
CGACATGTCCCGCTTCTTTCATTAATCCGTTAGCAACTGTTTTGCTATATGCAATTACCTTTTAAGAGGAGGAAT | 0.289
CGACATGTCCCGCTTCTTTCATTAATCCGTTAGCAACTGTTTTGCTATATGCATTTAACTTTTAAGAGGAGGAAT | 0.452
CGACATGTCCCGCTTCTTTCATTAATCCGTTAGCAACTGTTTTGCTATATGCATTTACCTTTTAAGAGGAGGAAT | 0.239
CGACATGTCCCGCTTCTTTCATTAATCCGTTAGCAACTGTTTTGCTATATGTATTTACCTTTTAAGAGGAGGAAT | 0.45
CGACATGTCCCGCTTCTTTCATTAATCCGTTAGCAACTGTTTTGCTATATTAATTTACCTTTTAAGAGGAGGAAT | 0.236
CGACATGTCCCGCTTCTTTCATTAATCCGTTAGCAACTGTTTTGCTATATTACATTTACCTTTTAAGAGGAGGAA | 0.443
CGACATGTCCCGCTTCTTTCATTAATCCGTTAGCAACTGTTTTGCTATATTCATATACCTTTTAAGAGGAGGAAT | 0.449
CGACATGTCCCGCTTCTTTCATTAATCCGTTAGCAACTGTTTTGCTATATTCATTTACCTTTTAAGAGGAGGAAT | 0.233
CGACATGTCCCGCTTCTTTCATTAATCCGTTAGCAACTGTTTTGCTATATTGATTTACCTTTTAAGAGGAGGAAT | 0.263
CGACATGTCCCGCTTCTTTCATTAATCCGTTAGCAACTGTTTTGCTATATTTATTTACCTTTTAAGAGGAGGAAT | 0.495
CGACATGTCCCGCTTCTTTCATTAATCCGTTAGCAACTGTTTTGCTATCTAAATTTACCTTTTAAGAGGAGGAAT | 0.123
CGACATGTCCCGCTTCTTTCATTAATCCGTTAGCAACTGTTTTGCTATCTACAGTTACCTTTTAAGAGGAGGAAT | 0.0519
CGACATGTCCCGCTTCTTTCATTAATCCGTTAGCAACTGTTTTGCTATCTACATTTACCTTTTAAGAGGAGGAAT | 0.098
CGACATGTCCCGCTTCTTTCATTAATCCGTTAGCAACTGTTTTGCTATGTACATTTACCTTTTAAGAGGAGGAAT | 0.215

Sequence | cleaved RNA product abundance
CGACATGTCCCGCTTCTTTCATTAATCCGTTAGCAACTGTTTTGCTATTTAAATTTACCTTTTAAGAGGAGGAAT | 0.144
CGACATGTCCCGCTTCTTTCATTAATCCGTTAGCAACTGTTTTGCTATTTACACTTACCTTTTAAGAGGAGGAAT | 0.12
CGACATGTCCCGCTTCTTTCATTAATCCGTTAGCAACTGTTTTGCTATTTACATATACCTTTTAAGAGGAGGAAT | 0.317
CGACATGTCCCGCTTCTTTCATTAATCCGTTAGCAACTGTTTTGCTATTTACATCTACCTTTTAAGAGGAGGAAT | 0.276
CGACATGTCCCGCTTCTTTCATTAATCCGTTAGCAACTGTTTTGCTATTTACATGTACCTTTTAAGAGGAGGAAT | 0.0435
CGACATGTCCCGCTTCTTTCATTAATCCGTTAGCAACTGTTTTGCTATTTACATTTAACTTTTAAGAGGAGGAAT | 0.208
CGACATGTCCCGCTTCTTTCATTAATCCGTTAGCAACTGTTTTGCTATTTACATTTACCTTTTAAGAGGAGGAAT | 0.16
CGACATGTCCCGCTTCTTTCATTAATCCGTTAGCAACTGTTTTGCTCTATAAATTTACCTTTTAAGAGGAGGAAT | 0.384
CGACATGTCCCGCTTCTTTCATTAATCCGTTAGCAACTGTTTTGCTCTATACATATACCTTTTAAGAGGAGGAAT | 0.176
CGACATGTCCCGCTTCTTTCATTAATCCGTTAGCAACTGTTTTGCTCTATACATTTACCTTTTAAGAGGAGGAAT | 0.265
CGACATGTCCCGCTTCTTTCATTAATCCGTTAGCAACTGTTTTGCTGTATAAATTTACCTTTTAAGAGGAGGAAT | 0.199
CGACATGTCCCGCTTCTTTCATTAATCCGTTAGCAACTGTTTTGCTGTATACATTTACCTTTTAAGAGGAGGAAT | 0.219
CGACATGTCCCGCTTCTTTCATTAATCCGTTAGCAACTGTTTTGCTTTATAAATTTACCTTTTAAGAGGAGGAAT | 0.385
CGACATGTCCCGCTTCTTTCATTAATCCGTTAGCAACTGTTTTGCTTTATACATATACCTTTTAAGAGGAGGAAT | 0.406
CGACATGTCCCGCTTCTTTCATTAATCCGTTAGCAACTGTTTTGCTTTATACATTTAACTTTTAAGAGGAGGAAT | 0.346
CGACATGTCCCGCTTCTTTCATTAATCCGTTAGCAACTGTTTTGCTTTATACATTTACCCTTTAAGAGGAGGAAT | 0.206
CGACATGTCCCGCTTCTTTCATTAATCCGTTAGCAACTGTTTTGCTTTATACATTTACCTTTTAAGAGGAGGAAT | 0.338
CGACATGTCCCGCTTCTTTCATTAATCCGTTAGCAACTGTTTTGCTTTATAGATTTACCTTTTAAGAGGAGGAAT | 0.649
CGACATGTCCCGCTTCTTTCATTAATCCGTTAGCAACTGTTTTGGTACATACATTTACCTTTTAAGAGGAGGAAT | 0.119
CGACATGTCCCGCTTCTTTCATTAATCCGTTAGCAACTGTTTTGGTAGATACATTTACCTTTTAAGAGGAGGAAT | 0.115
CGACATGTCCCGCTTCTTTCATTAATCCGTTAGCAACTGTTTTGGTATATACATTTACATTTTAAGAGGAGGAAT | 0.529

Sequence | cleaved RNA product abundance
CGACATGTCCCGCTTCTTTCATTAATCCGTTAGCAACTGTTTTGGTATATACATTTACCTTTTAAGAGGAGGAAT | 0.237
CGACATGTCCCGCTTCTTTCATTAATCCGTTAGCAACTGTTTTGGTATATATATTTACCTTTTAAGAGGAGGAAT | 0.224
CGACATGTCCCGCTTCTTTCATTAATCCGTTAGCAACTGTTTTGTGATATACATTTACCTTTTAAGAGGAGGAAT | 0.344
CGACATGTCCCGCTTCTTTCATTAATCCGTTAGCAACTGTTTTGTTAAATACATTTACCTTTTAAGAGGAGGAAT | 0.414
CGACATGTCCCGCTTCTTTCATTAATCCGTTAGCAACTGTTTTGTTATAAACATTTACCTTTTAAGAGGAGGAAT | 0.322
CGACATGTCCCGCTTCTTTCATTAATCCGTTAGCAACTGTTTTGTTATAGACATTTACCTTTTAAGAGGAGGAAT | 0.265
CGACATGTCCCGCTTCTTTCATTAATCCGTTAGCAACTGTTTTGTTATATACAGTTACCTTTTAAGAGGAGGAAT | 0.162
CGACATGTCCCGCTTCTTTCATTAATCCGTTAGCAACTGTTTTGTTATATACATATACCTTTTAAGAGGAGGAAT | 0.573
CGACATGTCCCGCTTCTTTCATTAATCCGTTAGCAACTGTTTTGTTATATACATTGACCTTTTAAGAGGAGGAAT | 2.01
CGACATGTCCCGCTTCTTTCATTAATCCGTTAGCAACTGTTTTGTTATATACATTTAACTTTTAAGAGGAGGAAT | 0.617
CGACATGTCCCGCTTCTTTCATTAATCCGTTAGCAACTGTTTTGTTATATACATTTACCCTTTAAGAGGAGGAAT | 0.388
CGACATGTCCCGCTTCTTTCATTAATCCGTTAGCAACTGTTTTGTTATATACATTTACCTTTTAAGAGGAGGAAT | 0.453
CGACATGTCCCGCTTCTTTCATTAATCCGTTAGCAACTGTTTTGTTATATACATTTACGTTTTAAGAGGAGGAAT | 0.39
CGACATGTCCCGCTTCTTTCATTAATCCGTTAGCAACTGTTTTGTTATATACATTTAGCTTTTAAGAGGAGGAAT | 0.257
CGACATGTCCCGCTTCTTTCATTAATCCGTTAGCAACTGTTTTGTTATATACATTTATCTTTTAAGAGGAGGAAT | 0.458
CGACATGTCCCGCTTCTTTCATTAATCCGTTAGCAACTGTTTTGTTATATATATTTACCTTTTAAGAGGAGGAAT | 0.298
CGACATGTCCCGCTTCTTTCATTAATCCGTTAGCAACTGTTTTTATATATACATTTACCTTTTAAGAGGAGGAAT | 0.669
CGACATGTCCCGCTTCTTTCATTAATCCGTTAGCAACTGTTTTTCAATATACATTTACCTTTTAAGAGGAGGAAT | 0.551
CGACATGTCCCGCTTCTTTCATTAATCCGTTAGCAACTGTTTTTCTAGATACATTTACCTTTTAAGAGGAGGAAT | 0.378
